Measurements from article PMC3378762.

What was measured:
CC(=O)NCCCNCCCCNCCCN = assay: steady-state oxygen consumption, oxygen electrode; format: biochemical, Saccharomyces cerevisiae; conditions: pH 9.0, 25 °C, 1.3 mM oxygen, 10% glycerol
NCCCNCCCCNCCCN = assay: steady-state oxygen consumption, oxygen electrode; format: biochemical, Saccharomyces cerevisiae; conditions: pH 9.35, 25 °C, 1.3 mM oxygen, 10% glycerol, pH 9.35
Lys315 = Lys315 (UniProt position 315, FGTNNKIFLEF); assay: kinetics; conditions: Oxidative half-reaction, N1-acetylspermine as amine substrate; cited from earlier work

Row | Substance | Km (CC(=O)NCCCNCCCCNCCCN; pH 9.0) [µM] | kcat (CC(=O)NCCCNCCCCNCCCN; pH 9.0) [s⁻¹] | kcat/Km (CC(=O)NCCCNCCCCNCCCN; pH 9.0) [M⁻¹ s⁻¹] | Km (NCCCNCCCCNCCCN) [µM] | kcat (NCCCNCCCCNCCCN) [s⁻¹] | Km (CC(=O)NCCCNCCCCNCCCN) [µM] | kcat (CC(=O)NCCCNCCCCNCCCN) [s⁻¹] | kcat/Km (CC(=O)NCCCNCCCCNCCCN) [M⁻¹ s⁻¹] | pKa (Lys315) | kcat/Km (NCCCNCCCCNCCCN) [M⁻¹ s⁻¹]
1 | Fms1 (Saccharomyces cerevisiae S288C; H67Q) | 47 ± 6 | 3.9 ± 0.1 | 83000 ± 11000 | 165 ± 25 | 0.88 ± 0.01 |  |  |  |  | 
2 | Fms1 (Saccharomyces cerevisiae S288C; H67N) |  |  |  |  |  | 18.6 ± 4.0 | 1.35 ± 0.04 | 72500 ± 15000 |  | 
3 | N1-acetylpolyamine oxidase (mouse PAO) (Mus musculus) |  |  |  |  |  |  |  |  | 7.0 | 
4 | Fms1 (Saccharomyces cerevisiae S288C; H67A) | 50 ± 13 | 2.7 ± 0.1 | 54000 ± 14000 | 1740 ± 310 | 0.44 ± 0.03 |  |  |  |  | 250 ± 50
